Numbering of substitutions follows the chain as printed. In names and notes the source's numbering stands. Each block holds one binder with its values, some of them ahead of it.
Tests used:
[1] = target: T1, recombinant human 14-3-3ζ protein (human), P63104; assay: AUC; 'sedimentation equilibration analysis'; 25 μM 14-3-3ζ incubated with or without PTA at 25 °C for 8 h, centrifuged at 20 °C and 60000 rpm for 7 h; c(s) by SEDPHAT; monomer to dimer; conditions: remark: other sources report otherwise
T1 chain: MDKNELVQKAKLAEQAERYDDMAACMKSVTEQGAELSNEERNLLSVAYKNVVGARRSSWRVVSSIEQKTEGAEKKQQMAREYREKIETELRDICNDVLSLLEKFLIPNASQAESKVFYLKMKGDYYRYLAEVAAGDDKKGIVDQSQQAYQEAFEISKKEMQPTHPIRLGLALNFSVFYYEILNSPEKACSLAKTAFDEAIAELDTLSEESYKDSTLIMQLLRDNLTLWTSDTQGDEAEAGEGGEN

[2] = target: the molecule itself; assay: cross-linking; 0.025 mM 14-3-3ζ incubated with or without PTA at 25 °C for 8 h, cross-linked with 1 mM disuccinimidyl suberate for 30 min (20 mM HEPES, 100 mM KCl, 1 mM dithiothreitol, pH 8.0), quenched with 50 mM Tris-HCl; SDS-PAGE with silver staining, and LC-MS

percent dimer (with PTA) [1]: 77.5%
percent dimer (without PTA) [1]: 69.1%
stoichiometry N [1]: 2
B1: recombinant human 14-3-3ζ protein, P63104 1-245 (natural protein)
chain: T1 chain

B2: 14-3-3ζ mutant (K158R) (natural protein, UniProt P63104 1-245, looked up)
chain: T1 chain with K158R
notes: 14-3-3ζ with K158R
binding result [2]: binds

— paper PMC6929985, “Allosteric regulation of protein 14-3-3ζ scaffold by small-molecule editing modulates histone H3 post-translational modifications” (Theranostics, 2020)
